Measured values as given in IntAct's records for PubMed 12023880.

B1: Tyrosine-protein phosphatase non-receptor type 1 (Homo sapiens), P18031 (parent)
chain: MEMEKEFEQIDKSGSWAAIYQDIRHEASDFPCRVAKLPKNKNRNRYRDVSPFDHSRIKLHQEDNDYINASLIKMEEAQRSYILTQGPLPNTCGHFWEMVWEQKSRGVVMLNRVMEKGSLKCAQYWPQKEEKEMIFEDTNLKLTLISEDIKSYYTVRQLELENLTTQETREILHFHYTTWPDFGVPESPASFLNFLFKVRESGSLSPEHGPVVVHCSAGIGRSGTFCLADTCLLLMDKRKDPSSVDIKKVLLEMRKFRMGLIQTADQLRFSYLAVIEGAKFIMGDSSVQDQWKELSHEDLEPPPEHIPPPPRPPKRILEPHNGKCREFFPNHQWVKEETQEDKDCPIKEEKGSPLNAAPYGIESMSQDTEVRSRVVGGSLRGAQAASPAKGEPSLPEKDEDHALSYWKPFLVNMCVATVLTAGAYLCYRFLFNSNT
B2: Tyrosine-protein phosphatase non-receptor type 1 (Homo sapiens), P18031 (parent)
chain: B1 chain
partner: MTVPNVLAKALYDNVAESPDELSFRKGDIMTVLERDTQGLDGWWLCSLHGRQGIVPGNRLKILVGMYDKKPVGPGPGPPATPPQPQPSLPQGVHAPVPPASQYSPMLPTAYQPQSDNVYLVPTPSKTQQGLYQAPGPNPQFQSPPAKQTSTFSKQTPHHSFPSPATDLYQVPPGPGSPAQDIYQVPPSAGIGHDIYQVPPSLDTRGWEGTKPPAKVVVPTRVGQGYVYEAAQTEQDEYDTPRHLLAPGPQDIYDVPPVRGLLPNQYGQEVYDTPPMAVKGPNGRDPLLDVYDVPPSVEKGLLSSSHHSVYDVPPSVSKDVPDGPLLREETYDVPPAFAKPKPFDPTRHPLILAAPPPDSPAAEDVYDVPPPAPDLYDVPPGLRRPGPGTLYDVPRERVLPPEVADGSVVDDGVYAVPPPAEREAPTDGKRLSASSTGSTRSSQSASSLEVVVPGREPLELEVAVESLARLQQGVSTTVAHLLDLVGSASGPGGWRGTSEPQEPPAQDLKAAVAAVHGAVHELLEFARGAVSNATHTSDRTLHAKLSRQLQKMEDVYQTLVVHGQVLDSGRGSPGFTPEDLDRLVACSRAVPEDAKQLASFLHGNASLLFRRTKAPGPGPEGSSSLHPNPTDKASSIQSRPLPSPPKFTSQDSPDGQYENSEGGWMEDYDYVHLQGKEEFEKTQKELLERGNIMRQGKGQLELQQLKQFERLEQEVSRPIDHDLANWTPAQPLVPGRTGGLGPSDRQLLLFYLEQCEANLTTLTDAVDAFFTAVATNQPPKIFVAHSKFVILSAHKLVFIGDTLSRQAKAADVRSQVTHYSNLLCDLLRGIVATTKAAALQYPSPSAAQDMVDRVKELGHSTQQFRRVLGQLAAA

Variants of: B1
Conditions: with src_rat Src

| effect of a mutation on the interaction | Variant |
| --- | --- |
| disrupting interaction | P309A;P310A |

Variants of: B1
Conditions: with grb2_rat Grb2, P62994

| effect of a mutation on the interaction | Variant |
| --- | --- |
| disrupting interaction | P309A;P310A |

Variants of: B1
Conditions: with crk_rat Crk

| effect of a mutation on the interaction | Variant |
| --- | --- |
| disrupting interaction | P309A;P310A |

Variants of: B1
Conditions: with insr_rat Insr

| effect of a mutation on the interaction | Variant |
| --- | --- |
| disrupting interaction | Y152F;Y153F |

Variants of: B2
Conditions: with bcar1_mouse Bcar1, Q61140

| effect of a mutation on the interaction | Variant |
| --- | --- |
| disrupting interaction | P309A;P310A |
